Assays:
[1] = target: recombinant hACE2-AviTag protein from 293T cells (Acro Biosystems) (human) (UniProt Q9BYF1); assay: SPR, hACE2-AviTag captured on chip, spike construct as analyte
[2] = target: hACE2 on human bronchial epithelial Calu-3 cells (human) (UniProt Q9BYF1)

S-Ecto-eGFP (other; other documents disagree on this pair)
Kd [1]: 0.0551 µM
fold median GFP fluorescence intensity (MFI) over GFP-His tag control [2]: 2.6 fold

Reference: patent publication US20220339279A1, “RECOMBINANT PROTEINS, COMPOSITIONS, VECTORS, KITS, AND METHODS FOR […], AND TESTING FOR EXPOSURE TO, SEVERE ACUTE RESPIRATORY SYNDROME CORONAVIRUS 2” (Board of Regents of the University of Nebraska, priority 2021, published 2022)
